From PMC10771525 (Communications Biology, 2024)
Each block holds one molecule with its values, some of them ahead of it.

Columns and labels:
Assay type in all cases: cell-based, human
CCR3 = experiment: GPCR panel (control), Arrestin, CHO-K1; settings: reference agonist
CCR7 = experiment: GPCR panel (control), Arrestin, CHO-K1; settings: reference agonist
CCR6 = experiment: GPCR panel (control), Arrestin, CHO-K1; settings: reference agonist
CXCR3 = experiment: GPCR panel (control), Arrestin, CHO-K1; settings: reference agonist
CXCR5 = experiment: GPCR panel (control), Arrestin, CHO-K1; settings: reference agonist
CMKLR1 = experiment: GPCR panel (control), Arrestin, CHO-K1; settings: reference agonist
GPR1 = experiment: GPCR panel (control), Arrestin, CHO-K1; settings: reference agonist
CXCR2 = experiment: GPCR panel (control), Arrestin, HEK-293; settings: reference agonist, CXCR2, HEK-293, Arrestin
CXCR1 = experiment: GPCR panel (control), Arrestin, U2OS; settings: reference agonist
CCR4 = experiment: GPCR panel (control), Arrestin, CHO-K1; settings: reference agonist
CXCR6 = experiment: GPCR panel (control), Arrestin, HEK-293; settings: reference agonist, CXCR6, HEK-293, Arrestin
CCR8 = experiment: GPCR panel (control), Arrestin, CHO-K1; settings: reference agonist
CX3CR1 = experiment: GPCR panel (control), Arrestin, CHO-K1; settings: reference agonist
CCR10 = experiment: GPCR panel (control), Arrestin, U2OS; settings: reference agonist
XCR1 = experiment: GPCR panel screening, cAMP assay, XCR1; settings: reference agonist, XCR1, CHO
Procedure: The chemokine receptor XCR1, coupled to Gαi, was tested in cAMP assays.
Screening the GPCRs panels was performed by DiscoverX (Eurofins) using β-arrestin recruitment assays unless otherwise indicated (for details, see Supplementary Data 2). […]
chemokine receptors (CCR1, CCR2, CCR3, CCR4, CCR5, CCR6, CCR7, CCR8, CCR9, CCR10, CXCR1, CXCR2, CXCR3, CXCR4, CXCR5, CXCR6, and CX3CR1) versus their corresponding agonist at their determined EC80 (see Supplementary Data 2). CXCL14 was preincubated for 30 min, then the standard agonist for the investigated receptor was added, followed by another incubation for 90 min without washing step in between. The chemokine receptor XCR1, coupled to Gαi, was tested in cAMP assays. The readout was relative luminescence units (RLU). The percentage of inhibition was calculated using the following formula: % Inhibition = 100% x (1 - (mean RLU of CXCL14- mean RLU of vehicle control) / (mean RLU of EC80 control - mean RLU of vehicle control)). For further details see Supplementary Data 2.
(1 picture or pasted object on this page, not shown here)

C5LR2 = experiment: GPCR panel (control), Arrestin, CHO-K1; settings: reference agonist
C5AR1 = experiment: GPCR panel (control), Arrestin, CHO-K1; settings: reference agonist
PROKR1 = experiment: GPCR panel (control), Arrestin, CHO-K1; settings: reference agonist
PROKR2 = experiment: GPCR panel (control), Arrestin, CHO-K1; settings: reference agonist

Molecule: CCL20
- EC50 (CCR6): 6.2 nM
- EC80 (CCR6): 710 nM

Molecule: CXCL13
- EC50 (CXCR5): 24 nM
- EC80 (CXCR5): 1200 nM

Molecule: Chemerin
- EC50 (CMKLR1): 1 nM
- EC80 (CMKLR1): 93 nM
- EC50 (GPR1): 7.3 nM
- EC80 (GPR1): 170 nM

Molecule: Interleukin-8
- EC50 (CXCR2): 1.1 nM
- EC80 (CXCR2): 230 nM
- EC50 (CXCR1): 1.7 nM
- EC80 (CXCR1): 300 nM

B1: CCL22 (protein, UniProt O00626 25-93, looked up)
C-C motif chemokine 22: GPYGANMEDSVCCRDYVRYRLPLRVVKHFYWTSDSCPRPGVVLLTFRDKEICADPRVPWVKMILNKLSQ
- EC50 (CCR4): 2.4 nM
- EC80 (CCR4): 120 nM

B2: CXCL16 (protein, UniProt Q9H2A7 30-254, looked up)
C-X-C motif chemokine 16: NEGSVTGSCYCGKRISSDSPPSVQFMNRLRKHLRAYHRCLYYTRFQLLSWSVCGGNKDPWVQELMSCLDLKECGHAYSGIVAHQKHLLPTSPPISQASEGASSDIHTPAQMLLSTLQSTQRPTLPVGSLSSDKELTRPNETTIHTAGHSLAAGPEAGENQKQPEKNAGPTARTSATVPVLCLLAIIFILTAALSYVLCKRRRGQSPQSSPDLPVHYIPVAPDSNT
- EC50 (CXCR6): 1.5 nM
- EC80 (CXCR6): 130 nM

B4: Fractalkine (protein, UniProt P78423 25-397, looked up)
Fractalkine: QHHGVTKCNITCSKMTSKIPVALLIHYQQNQASCGKRAIILETRQHRLFCADPKEQWVKDAMQHLDRQAAALTRNGGTFEKQIGEVKPRTTPAAGGMDESVVLEPEATGESSSLEPTPSSQEAQRALGTSPELPTGVTGSSGTRLPPTPKAQDGGPVGTELFRVPPVSTAATWQSSAPHQPGPSLWAEAKTSEAPSTQDPSTQASTASSPAPEENAPSEGQRVWGQGQSPRPENSLEREEMGPVPAHTDAFQDWGPGSMAHVSVVPVSSEGTPSREPVASGSWTPKAEEPIHATMDPQRLGVLITPVPDAQAATRRQAVGLLAFLGLLFCLGVAMFTYQSLQGCPRKMAGEMAEGLRYIPRSCGSNSYVLVPV
- EC50 (CX3CR1): 0.13 nM
- EC80 (CX3CR1): 15 nM

B5: CCL27 (protein, UniProt Q9Y4X3 25-112, looked up)
C-C motif chemokine 27: FLLPPSTACCTQLYRKPLSDKLLRKVIQVELQEADGDCHLQAFVLHLAQRSICIHPQNPSLSQWFEHQERKLHGTLPKLNFGMLRKMG
- EC50 (CCR10): 65 nM
- EC80 (CCR10): 1700 nM

B6: XCL1/Lymphotactin (protein, UniProt P47992 22-114, looked up)
Lymphotactin: VGSEVSDKRTCVSLTTQRLPVSRIKTYTITEGSLRAVIFITKRGLKVCADPQATWVRDVVRSMDRKSNTRNNMIQTKPTGTQQSTNTAVTLTG
- EC50 (XCR1): 8.8 nM
- EC80 (XCR1): 480 nM

B8: EG VEGF (protein, UniProt P58294 20-105, looked up)
Prokineticin-1: AVITGACERDVQCGAGTCCAISLWLRGLRMCTPLGREGEECHPGSHKVPFFRKRKHHTCPCLPNLLCSRFPDGRYRCSMDLKNINF
- EC50 (PROKR1): 49 nM
- EC80 (PROKR1): 2400 nM
- EC50 (PROKR2): 5.1 nM
- EC80 (PROKR2): 410 nM

Further lines, with some results ahead:

- EC50 (CCR3): 8.8 nM
Molecule: CCL13
- EC80 (CCR3): 210 nM

- EC50 (CCR7): 9.5 nM
Molecule: CCL19
- EC80 (CCR7): 230 nM

- EC50 (CXCR3): 9.3 nM
Molecule: CXCL11
- EC80 (CXCR3): 280 nM

- EC50 (CCR8): 40 nM
B3: CCL1 (protein, UniProt P22362 24-96, looked up)
C-C motif chemokine 1: KSMQVPFSRCCFSFAEQEIPLRAILCYRNTSSICSNEGLIFKLKRGKEACALDTVGWVQRHRKMLRHCPSKRK
- EC80 (CCR8): 1900 nM

- EC50 (C5LR2): 2.2 nM
- EC50 (C5AR1): 1.3 nM
B7: Complement C5a (protein, UniProt P01031 678-751, looked up)
C5a anaphylatoxin: TLQKKIEEIAAKYKHSVVKKCCYDGACVNNDETCEQRAARISLGPRCIKAFTECCVVASQLRANISHKDMQLGR
modifications: C5a anaphylatoxin
- EC80 (C5LR2): 43 nM
- EC80 (C5AR1): 71 nM
